T1: murine IGFBP-2 with C-terminal 6His tag, P47877
T1 chain: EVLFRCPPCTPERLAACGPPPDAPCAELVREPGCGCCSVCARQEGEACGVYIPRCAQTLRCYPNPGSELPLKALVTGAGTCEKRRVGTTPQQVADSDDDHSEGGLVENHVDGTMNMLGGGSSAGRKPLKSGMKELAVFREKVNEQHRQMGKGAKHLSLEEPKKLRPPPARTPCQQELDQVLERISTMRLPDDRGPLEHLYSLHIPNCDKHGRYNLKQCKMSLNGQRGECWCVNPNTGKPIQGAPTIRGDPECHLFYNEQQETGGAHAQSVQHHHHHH

T2: murine IGFBP-5 with C-terminal 6His tag, Q07079
T2 chain: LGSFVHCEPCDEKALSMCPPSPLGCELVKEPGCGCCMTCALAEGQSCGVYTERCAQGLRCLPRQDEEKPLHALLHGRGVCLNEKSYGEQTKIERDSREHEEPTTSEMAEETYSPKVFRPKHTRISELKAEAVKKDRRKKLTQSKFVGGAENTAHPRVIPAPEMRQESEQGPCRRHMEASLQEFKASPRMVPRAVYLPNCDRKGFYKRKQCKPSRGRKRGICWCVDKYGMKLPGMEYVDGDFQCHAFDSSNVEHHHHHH

T3: murine IGFBP-4 with C-terminal 6His tag, P47879
T3 chain: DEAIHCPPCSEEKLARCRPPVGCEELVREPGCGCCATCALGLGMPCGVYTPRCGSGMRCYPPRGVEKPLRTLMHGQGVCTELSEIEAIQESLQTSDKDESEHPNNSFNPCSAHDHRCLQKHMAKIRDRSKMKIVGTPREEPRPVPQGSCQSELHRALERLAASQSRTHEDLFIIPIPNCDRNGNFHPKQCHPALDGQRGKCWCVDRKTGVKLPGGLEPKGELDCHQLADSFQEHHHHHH

T4: human IGFBP-4 with N-terminal 6His tag, P22692
T4 chain: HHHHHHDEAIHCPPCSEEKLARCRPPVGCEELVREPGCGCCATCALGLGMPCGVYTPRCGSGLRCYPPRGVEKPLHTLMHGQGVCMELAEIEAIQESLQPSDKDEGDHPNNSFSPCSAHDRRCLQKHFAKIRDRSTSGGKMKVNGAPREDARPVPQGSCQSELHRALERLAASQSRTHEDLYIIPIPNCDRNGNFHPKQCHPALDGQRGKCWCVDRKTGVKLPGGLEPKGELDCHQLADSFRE

T5: human IGFBP-2 with N-terminal 6His tag, P18065
T5 chain: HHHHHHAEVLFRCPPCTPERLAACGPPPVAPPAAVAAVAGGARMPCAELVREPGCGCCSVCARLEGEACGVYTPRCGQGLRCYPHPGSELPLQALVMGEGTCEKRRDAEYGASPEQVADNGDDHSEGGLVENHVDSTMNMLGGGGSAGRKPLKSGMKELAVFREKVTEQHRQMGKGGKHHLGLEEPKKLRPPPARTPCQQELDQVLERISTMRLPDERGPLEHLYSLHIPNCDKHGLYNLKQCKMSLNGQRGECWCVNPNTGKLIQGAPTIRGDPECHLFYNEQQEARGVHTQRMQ


Key:
[1] = target: T1, murine IGFBP-2 with C-terminal 6His …
[2] = target: T2, murine IGFBP-5 with C-terminal 6His …
[3] = target: T3, murine IGFBP-4 with C-terminal 6His …
[4] = target: human IGFBP-5 with N-terminal 6His tag, P24593
[5] = target: T4, human IGFBP-4 with N-terminal 6His tag, …
[6] = target: five representative anti-PAPP-A antibodies generated from yeast display libraries
[7] = target: T5, human IGFBP-2 with N-terminal 6His tag, …

human IGFBP-5 with N-terminal 6His tag, P24593, sequence (P24593 other isoform, or with tags, fused parts or gaps): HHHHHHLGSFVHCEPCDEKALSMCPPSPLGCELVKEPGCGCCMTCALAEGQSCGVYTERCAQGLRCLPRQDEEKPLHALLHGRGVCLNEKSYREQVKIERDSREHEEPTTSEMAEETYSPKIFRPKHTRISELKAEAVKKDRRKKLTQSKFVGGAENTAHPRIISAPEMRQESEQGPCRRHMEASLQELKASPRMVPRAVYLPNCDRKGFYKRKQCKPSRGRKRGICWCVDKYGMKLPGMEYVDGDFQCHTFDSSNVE

Protein | enzymatic cleavage of IGFBP by PAPP-A [1] | enzymatic cleavage of IGFBP by PAPP-A [2] | enzymatic cleavage of IGFBP by PAPP-A [3] | enzymatic cleavage of IGFBP by PAPP-A [4] | enzymatic cleavage of IGFBP by PAPP-A [5] | PAPP-A cleavage of human IGFBP4 at one antibody concentration (50 nM) [6] | enzymatic cleavage of IGFBP by PAPP-A [7]
murine PAPP-A protein with C-terminal C-myc and Flag tags (protein) RGAEEPSPPSRALYFSGRGEQLRLRADLELPRDAFTLQVWLRAEGGQKSPAVITGLYDKCSYTSRDRGWVMGIHTTSDQGNRDPRYFFSLKTDRARKVTTIDAHRSYLPGQWVHLAATYDGRLMKLYMNGAQVATSAEQVGGIFSPLTQKCKVLMLGGSALNHNFRGHIEHFSLWKVARTQREIVSDMETRGLHTPLPQLLLQENWDNVKRTWSPMKDGNSPQVEFSNAHGFLLDTNLEPPLCGQTLCDNTEVISSYNQLPSFRQPKVVRYRVVNIYDDHHENPTVSWQQIDFQHQQLAEAFQHYNISWELEVLNINSSSLRHRLILANCDISKIGDEKCDPECNHTLTGHDGGDCRQLRYPAFMKKQQNGVCDMDCNYERFNFDGGECCDPDITDVTKTCFDPDSPHRAYLDVNELKNILRLDGSTHLNIFFANSSEEELAGVATWPWDKEALMHLGGIVLNPSFYGIPGHTHTMIHEIGHSLGLYHIFRGISEIQSCSDPCMETEPSFETGDLCNDTNPAPKHKFCGDPGPGNDTCGFHGFFNTPYNNFMSYADDDCTDSFTPNQVSRMHCYLDLVYQSWQPSRKPAPVALAPQVVGHTMDSVMLEWFPPIDGHFFERELGSACDLCLEGRILVQYAFNASSPMPCGPSGHWSPREAEGHPDVEQPCKSSVRTWSPNSAVNPHTVPPACPEPQGCYLELEFRYPLVPESLTIWVTFVSSDWDSSGAVNDIKLLTISGKNISLGPQNVFCDIPLTIRLRDVGEEVYGIQIYTLDEHLEIDAAMLTSTVDSPLCLQCKPLQYKVLRDPPLLEDVASLLHLNRRFMDTDLKLGSVYQYRIITISGNEESEPSPAAIYTHGSGYCGDGVIQKDQGEECDDMNKVNGDGCSLFCKQEVSFNCIDEPSRCYFHDGDGMCEEFEQKTSIKDCGVYTPQGFLDQWASNASVSHQDQQCPGWVVIGQPAASQVCRTKVIDLSEGISQHAWYPCTITYPYYHLPQTTFWLQTYFSQPMVAAAVIIHLVTDGTYYGDQKQETISVQLLDTKDQSHDLGLHVLSCRNNPLIIPVVHDLSQPFYHSQAVHVSFSSPLVAISGVALRSFDNFDPVTLSSCQRGETYSPAEQSCVHFACQAADCPELAVGNASLNCSSNHHYHGAQCTVSCQTGYVLQIQRDDELIKSQVGPSITVTCTEGKWNKQVACEPVDCGIPDHHHVYAASFSCPEGTTFGRRCSFQCRHPAQLKGNNSFLTCMEDGLWSFPEALCELMCLAPPPVPNADLQTARCRENKHKVGSFCKYKCKPGYHVPGSSRKSKKRAFKTQCTQDGSWQEGTCVPVTCDPPPPKFHGLYQCTNGFQFNSECRIKCEDSDASQGRGSNIIHCRKDGTWSGSFHVCREMQGQCSAPNQLNSNLKLQCPDGYAIGSECAISCLDHNSESIILPVNLTVRDIPHWMNPTRVQRIVCTAGLQWYPHPALIHCVKGCEPFMGDNYCDAINNRAFCNYDGGDCCTSTVKTKKVTPFPMSCDLQNDCACRDPEAQEHNRKDLRGYSHG | cleavage of both human and murine IGFBP-4 and IGFBP-2 by PAPP-A | PAPP-A's ability to cleave IGFBP-5 | cleavage of both human and murine IGFBP-4 and IGFBP-2 by PAPP-A |  |  |  | 
human PAPP-A protein with C-terminal C-myc and Flag tags (protein) EARGATEEPSPPSRALYFSGRGEQLRVLRADLELPRDAFTLQVWLRAEGGQRSPAVITGLYDKCSYISRDRGWVVGIHTISDQDNKDPRYFFSLKTDRARQVTTINAHRSYLPGQWVYLAATYDGQFMKLYVNGAQVATSGEQVGGIFSPLTQKCKVLMLGGSALNHNYRGYIEHFSLWKVARTQREILSDMETHGAHTALPQLLLQENWDNVKHAWSPMKDGSSPKVEFSNAHGFLLDTSLEPPLCGQTLCDNTEVIASYNQLSSFRQPKVVRYRVVNLYEDDHKNPTVTREQVDFQHHQLAEAFKQYNISWELDVLEVSNSSLRRRLILANCDISKIGDENCDPECNHTLTGHDGGDCRHLRHPAFVKKQHNGVCDMDCNYERFNFDGGECCDPEITNVTQTCFDPDSPHRAYLDVNELKNILKLDGSTHLNIFFAKSSEEELAGVATWPWDKEALMHLGGIVLNPSFYGMPGHTHTMIHEIGHSLGLYHVFRGISEIQSCSDPCMETEPSFETGDLCNDTNPAPKHKSCGDPGPGNDTCGFHSFFNTPYNNFMSYADDDCTDSFTPNQVARMHCYLDLVYQGWQPSRKPAPVALAPQVLGHTTDSVTLEWFPPIDGHFFERELGSACHLCLEGRILVQYASNASSPMPCSPSGHWSPREAEGHPDVEQPCKSSVRTWSPNSAVNPHTVPPACPEPQGCYLELEFLYPLVPESLTIWVTFVSTDWDSSGAVNDIKLLAVSGKNISLGPQNVFCDVPLTIRLWDVGEEVYGIQIYTLDEHLEIDAAMLTSTADTPLCLQCKPLKYKVVRDPPLQMDVASILHLNRKFVDMDLNLGSVYQYWVITISGTEESEPSPAVTYIHGRGYCGDGIIQKDQGEQCDDMNKINGDGCSLFCRQEVSFNCIDEPSRCYFHDGDGVCEEFEQKTSIKDCGVYTPQGFLDQWASNASVSHQDQQCPGWVIIGQPAASQVCRTKVIDLSEGISQHAWYPCTISYPYSQLAQTTFWLRAYFSQPMVAAAVIVHLVTDGTYYGDQKQETISVQLLDTKDQSHDLGLHVLSCRNNPLIIPVVHDLSQPFYHSQAVRVSFSSPLVAISGVALRSFDNFDPVTLSSCQRGETYSPAEQSCVHFACEKTDCPELAVENASLNCSSSDRYHGAQCTVSCRTGYVLQIRRDDELIKSQTGPSVTVTCTEGKWNKQVACEPVDCSIPDHHQVYAASFSCPEGTTFGSQCSFQCRHPAQLKGNNSLLTCMEDGLWSFPEALCELMCLAPPPVPNADLQTARCRENKHKVGSFCKYKCKPGYHVPGSSRKSKKRAFKTQCTQDGSWQEGACVPVTCDPPPPKFHGLYQCTNGFQFNSECRIKCEDSDASQGLGSNVIHCRKDGTWNGSFHVCQEMQGQCSVPNELNSNLKLQCPDGYAIGSECATSCLDHNSESIILPMNVTVRDIPHWLNPTRVERVVCTAGLKWYPHPALIHCVKGCEPFMGDNYCDAINNRAFCNYDGGDCCTSTVKTKKVTPFPMSCDLQGDCACRDPQAQEHSRKDLRGYSHG |  |  |  | PAPP-A's ability to cleave IGFBP-5 | cleavage of both human and murine IGFBP-4 and IGFBP-2 by PAPP-A | the five representative antibodies effectively blocking cleavage of human IGFBP4 | cleavage of both human and murine IGFBP-4 and IGFBP-2 by PAPP-A

— US20220372167
